From patent US20160237144A1 come the findings set out here.

The target in experiment [1] is TtSlyD-FKBP-A (Thermus thermophilus). Put plainly: SPR (Biacore), captured antibody, TtSlyD_A as analyte 0-300 nM, Langmuir fit. In general terms: Surface plasmon resonance follows binding to a sensor surface in real time, without labels.
The target of experiment [2] is TtSlyD-FKBP-B (Thermus thermophilus). Put plainly: SPR (Biacore), captured antibody, TtSlyD_B as analyte 0-300 nM, Langmuir fit.
Experiment [3] has the same target. Briefly: SPR (Biacore), 25 C; antibody (89 RU) captured on goat anti-rabbit Fc-gamma, TtSlyD-B as analyte; Langmuir fit.
The target of experiment [4] is TtSlyD-FKBP-A (Thermus thermophilus). Put plainly: SPR (Biacore), 25 C; antibody (92 RU) captured on goat anti-rabbit Fc-gamma, TtSlyD-A as analyte; Langmuir fit.
The target is the same in experiment [5]. Briefly: SPR (Biacore B3000), antibody captured by GAR-Fcγ, scaffold in solution, 25° C.; dissociation beyond instrument limit.
The target of experiment [6] is TtSlyD-FKBP-B (Thermus thermophilus). The experiment is described as above.
Experiment [7] has as its target TtSlyD-FKBP clone 5F8 (Thermus thermophilus). Briefly: SPR (Biacore), 25 C; 1141 RU 0712pS4D5 captured on goat anti-rabbit antibody, scaffold 5F8 (18 kDa) captured by it.
The target of experiment [8] is TtSlyD-FKBP clone 3 C1 (Thermus thermophilus). Briefly: SPR (Biacore), 25 C; 1253 RU 0712pS4D5 captured on goat anti-rabbit antibody, scaffold 3C1 (18 kDa) captured by it.
Sequence of TtSlyD-FKBP clone 3 C1 (Thermus thermophilus) (main, as listed by the source): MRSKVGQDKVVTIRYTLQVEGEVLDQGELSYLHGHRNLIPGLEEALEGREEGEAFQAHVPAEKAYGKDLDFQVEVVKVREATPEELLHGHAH
Experiment [9] has as its target TtSlyD-FKBP clone 3 F12 (Thermus thermophilus). Briefly: SPR (Biacore), 25 C; 1268 RU 0712pS4D5 captured on goat anti-rabbit antibody, scaffold 3F12 (18 kDa) captured by it.
Experiment [10] addresses TtSlyD-FKBP-A (Thermus thermophilus). Put plainly: SPR (Biacore), 25 C; antibody captured on goat anti-rabbit Fc-gamma, TtSlyD-A as analyte; kd set to the instrument limit of 1e-05 1/s.
Experiment [11] addresses TtSlyD-FKBP-B (Thermus thermophilus). Briefly: SPR (Biacore), 25 C; antibody captured on goat anti-rabbit Fc-gamma, TtSlyD-B as analyte; kd set to the instrument limit of 1e-05 1/s.
Experiment [12] addresses TtSlyD-FKBP-A (Thermus thermophilus). Briefly: SPR (Biacore), 25 C; antibody captured on goat anti-rabbit Fc-gamma, TtSlyD-A as analyte; apparent affinity, kd set to the instrument limit.
Experiment [13] deals with TtSlyD-FKBP-B (Thermus thermophilus). Put plainly: SPR (Biacore), 25 C; antibody captured on goat anti-rabbit Fc-gamma, TtSlyD-B as analyte; apparent affinity, kd set to the instrument limit.
The target is the same in experiment [14]. Briefly: SPR (Biacore), 25 C; antibody (212 RU) captured on goat anti-rabbit Fc-gamma, TtSlyD-B as analyte; Langmuir fit.
Experiment [15] concerns the target TtSlyD-FKBP-A (Thermus thermophilus). Put plainly: SPR (Biacore), 25 C; antibody (223 RU) captured on goat anti-rabbit Fc-gamma, TtSlyD-A as analyte; Langmuir fit.

Broadly, the koff is the first-order rate constant of dissociation. Lower therefore signals slow dissociation. Usually kon stands for the rate constant with which the complex forms. A high value points to faster complex formation.

Sequence of TtSlyD-FKBP-B (Thermus thermophilus) (main, as listed by the source): as above
Sequence of TtSlyD-FKBP-A (Thermus thermophilus) (main, as listed by the source): as above
Sequence of TtSlyD-FKBP clone 3 F12 (Thermus thermophilus) (main, as listed by the source): as above
Sequence of TtSlyD-FKBP clone 5F8 (Thermus thermophilus) (main, as listed by the source): as above

B1: RabMab 0712pS4D3 (antibody, V domains shown)
VH: CQSLEESGGRLVKPGGSLTLTCTVSGFSLSSYAMIWVRQAPGKGLEWIGVISSLGITYYANWAKGRFTISKASTTVDLKIASPTIGDTATYFCARGFFAGGSNYYPLWGPGTLVTVSS
VL: CQASETIINWCSWYQQKPGQPPKLLIYKASNLESGVPSRFKGSGSGTEFTLTISDLECADAATYYCQQGYGYRDLENPFGGGTEVVVKG
As for B1, the Kd in [1] came out at 0.03 nM; in [2] it was 0.037 nM; in [12] it was 0.0299 nM; in experiment [13] it was 0.0369 nM. Also, the MR (Molar Ratio) in [1] is 1.7; in experiment [2], 1.9; in experiment [3], 1.9; in experiment [4], 1.7; in [7], 2; in experiment [8] it was 2. In addition, the MR (Molar Ratio) in [9] came out at 2. The koff was less than 1e-05 s⁻¹ in [1]; less than 1e-05 s⁻¹ in experiment [2]; less than 1e-05 s⁻¹ in experiment [5]; less than 1e-05 s⁻¹ in experiment [6]; 1e-05 s⁻¹ in experiment [10]; 1e-05 s⁻¹ in experiment [11]. The kon stood at 335000 M⁻¹ s⁻¹ in experiment [1], 271000 M⁻¹ s⁻¹ in experiment [2], 271000 M⁻¹ s⁻¹ in experiment [3] and 335000 M⁻¹ s⁻¹ in experiment [4]. In addition, the scaffold (RU) in experiment [7] is 254 RU; in [8], 267 RU; in experiment [9], 286 RU.

B2: RabMab 0612pS3A8 (antibody, V domains shown)
VH: CQSVEESGGRLVTPGTPLTLTCTVSGFSLSSNAISWVRQAPGKGLEWIGIINNIGSTWYASWAKGRFTISKASSTTVDLKMTSLTTEDTATYFCARIVVNYNLGPYNLWGPGTLVTVSS
VL: AFELTQTPSSVEAAVGGTVTIKCQATENIGNALAWYQQKPGQPPKLLIYRASTLASGVPSRFKGSGSGTDFTLTISDLECADAATYYCQSYYDIYTYVFGGGTEL
In the case of B2, the Kd in [1] was found to be 0.008 nM; in experiment [2], 0.023 nM; in [12] it was 0.00787 nM; in experiment [13], 0.0234 nM. Further, the MR (Molar Ratio) in experiment [1] came out at 1.2; in [2] it was 1.4; in experiment [14], 1.4; in experiment [15], 1.2. Further, the koff was less than 1e-05 s⁻¹ in experiment [1]; less than 1e-05 s⁻¹ in [2]; less than 1e-05 s⁻¹ in [5]; less than 1e-05 s⁻¹ in [6]; 1e-05 s⁻¹ in experiment [10]; 1e-05 s⁻¹ in experiment [11]. Also, the kon in experiment [1] is 1.27e+06 M⁻¹ s⁻¹; in experiment [2] it was 428000 M⁻¹ s⁻¹; in experiment [14] it was 428000 M⁻¹ s⁻¹; in [15] it was 1.27e+06 M⁻¹ s⁻¹.
